From publication PMC8760265

Target: CDK9 (UniProt P50750)
Experiment: co-IP with FLAG or HA antibody, immunoblot
Details: reference: HA-TRIM28 wild type; sites S824

binding against the reference: weaker
Substance: TRIM28 (from UniProt Q13263) HA-TRIM28-S824A
